Results published in patent US20250376517A1 (AKESO BIOPHARMA, published 2025).
Numbering of substitutions follows the chain as printed. Each block holds one binder with its values, some of them ahead of it.

Tests used:
[1] = biological target: T1, human Claudin18.2 (CLDN18.2) on the surface of CHO-K1-CLDN18.2 cells (human, UniProt P56856-2 1-261); experiment: flow cytometry (FACS) on CHO-K1-CLDN18.2 cells
T1 construct: whole, on cells; Membrane protein overexpressed on CHO-K1 cells; also called hCLDN18.2; antigen on the surface of CHO-K1-CLDN18.2 cell

[2] = biological target: T1, human Claudin18.2 (CLDN18.2) on the …; experiment: cell ELISA on CHO-K1-CLDN18.2 cells
Protocol: (§1) CHO-K1-CLDN18.2 cells (Chinese hamster ovary cells CHO-K1 overexpressing CLDN18.2, CHO-K1 purchased from Cell Resource Center, Institute of Basic Medical Sciences, Chinese Academy of Medical Sciences, Cat. No.: 3111C0001CCC000004) were plated on a cell plate (Corning, 3599) at 2×10⁴ cells/well and cultured overnight at 5% CO₂ and 37° C., and then the cell plate in which the cells were incubated was washed once with PBST and blocked for 2 h at 37° C. using PBST containing 1% BSA as a blocking solution. After blocking, the plate was washed 3 times with PBST. The ELISA plate containing the test antibodies was incubated at 37° C. for 30 min and then washed 3 times with PBST. […] Then, the plate was incubated at 37° C. for 30 min. After incubation, the plate was washed 4 times with PBST, TMB (Neogen, 308177) was added for color developing in the dark for 5 min, and then a stop solution was added to terminate the chromogenic reaction. The ELISA plate was put into a microplate reader immediately, and the OD value of each well in the ELISA plate was read at 450 nm. The data were analyzed and processed by SoftMax Pro 6.2.1.

[3] = biological target: T1, human Claudin18.2 (CLDN18.2) on the …; experiment: cell ELISA on CHO-K1-CLDN18.2 cells; remark: listed apart in the source
Protocol: as §1

[4] = biological target: T1, human Claudin18.2 (CLDN18.2) on the …; experiment: cell ELISA on CHO-K1-CLDN18.2 cells; remark: listed apart in the source
Protocol: as §1

[5] = biological target: T1, human Claudin18.2 (CLDN18.2) on the …; experiment: flow cytometry (FACS) on CHO-K1-CLDN18.2 cells; remark: listed apart in the source
Protocol: CHO-K1-CLDN18.2 cells in logarithmic growth phase were collected and transferred to a 1.5 mL EP tube at 3×10⁵ cells/well, and then 1% PBSA was added. The mixture was centrifuged at 1000× g for 5 min, followed by removal of the supernatant. […] 1000 μL of 1% PBSA was added, and the mixture was centrifuged at 1000×g for 5 min, followed by removal of the supernatant and washing twice with 1% PBSA. […] The mixture was resuspended and well mixed, and incubated on ice for 40 min in the dark. 1000 μL of 1% PBSA was added, and the mixture was centrifuged at 1000×g for 5 min, followed by removal of the supernatant and washing twice with 1% PBSA. 200 μL of 1% PBSA was added to resuspend the cell pellets, and the mixture was transferred to a flow cytometry tube for FACSCalibur assay.

[6] = biological target: T1, human Claudin18.2 (CLDN18.2) on the …; experiment: cell ELISA on CHO-K1-CLDN18.2 cells; antibody 3 µg/mL
Protocol: as §1

[7] = biological target: T1, human Claudin18.2 (CLDN18.2) on the …; experiment: cell ELISA on CHO-K1-CLDN18.2 cells; antibody 0.111 µg/mL
Protocol: as §1

[8] = biological target: T1, human Claudin18.2 (CLDN18.2) on the …; experiment: cell ELISA on CHO-K1-CLDN18.2 cells; antibody 0.037 µg/mL
Protocol: as §1

[9] = biological target: T1, human Claudin18.2 (CLDN18.2) on the …; experiment: cell ELISA on CHO-K1-CLDN18.2 cells; antibody 0 µg/mL (background, no antibody)
Protocol: as §1

[10] = biological target: T1, human Claudin18.2 (CLDN18.2) on the …; experiment: cell ELISA on CHO-K1-CLDN18.2 cells; antibody 1.000 µg/mL
Protocol: as §1

[11] = biological target: T1, human Claudin18.2 (CLDN18.2) on the …; experiment: cell ELISA on CHO-K1-CLDN18.2 cells; antibody 0.333 µg/mL
Protocol: as §1

[12] = biological target: T1, human Claudin18.2 (CLDN18.2) on the …; experiment: cell ELISA on CHO-K1-CLDN18.2 cells; antibody 0.004 µg/mL
Protocol: as §1

[13] = biological target: T1, human Claudin18.2 (CLDN18.2) on the …; experiment: cell ELISA on CHO-K1-CLDN18.2 cells; antibody 0.012 µg/mL
Protocol: as §1

B2: humanized anti-human CLDN18.2 antibody 8C5.1H2L2 (antibody, human IgG1, kappa, V domains shown)
VH: EVQLVESGGGLVKPGGSLRLSCAASGFTFSNSAVSWVRQAPGKGLEWVSTITSGVSYTYYADSVKGRFTISRDNAKNSLYLQMNSLRAEDTAVYYCTRQFKGNALDYWGQGTSVTVSS
VL: DIVMTQSPSSLSVSPGERVTISCKSSQSLLNSGNQKNYLTWYQQKPGQPPKLLIYWASTRESGVPDRFSGSGSGTDFTLTISSFQAEDVAVYYCQNDYFYPLTFGAGTKLELKR
EC50 [1]: 0.234 µg/mL
EC50 [3]: 0.094 nM

B6: humanized anti-human CLDN18.2 antibody 8C5.1H3L3 (antibody, human IgG1, kappa, V domains shown)
VH: B2 VH with T50S
VL: B2 VL with T40A, F84L
EC50 [1]: 0.281 µg/mL

B7: humanized anti-human CLDN18.2 antibody 8C5.1H2L1 (antibody, human IgG1, kappa, V domains shown)
VH: B2 VH
VL: B2 VL with I21M, S82N
EC50 [1]: 0.267 µg/mL
EC50 [3]: 0.091 nM

B9: anti-CLDN18.2 antibody 8C5.1 (antibody, V domains shown)
VH: EVQLVESGGGLVKPGGSLKLSCAASGFTFSNSAVSWVRQTPEKRLEWVATITSGVSYTYYLDSVRGRFTISRDNAKNTLYLQMSSLRSEDTAMYYCTRQFKGNALDYWGQGTSVTVSS
VL: DIVMTQSPSSLTVTAGEKVTMSCKSSQSLLNSGNQKNYLTWYQQKPGQPPKLLIYWASTRESGVPDRFTGSGSGTDFTLTINNFQAEDLAVYYCQNDYFYPLTFGAGTKLELK
notes: Murine monoclonal antibody purified from hybridoma LT020 supernatant on protein A; also called monoclonal antibody secreted by hybridoma cell line LT020
OD (450 nm) [6]: 1.61 OD
OD (450 nm) [7]: 1.42 OD
OD (450 nm) [8]: 1.07 OD
OD (450 nm) [9]: 0.086 OD
OD (450 nm) [10]: 1.79 OD
OD (450 nm) [11]: 1.63 OD
EC50 [4]: 0.153 nM
OD (450 nm) [12]: 0.344 OD
OD (450 nm) [13]: 0.697 OD
EC50 [5]: 0.214 µg/mL

The next lines start with the values.

EC50 [1]: 0.358 µg/mL
EC50 [2]: 0.182 nM
EC50 [3]: 0.153 nM
EC50 [4]: 0.201 nM
EC50 [5]: 0.687 µg/mL
B1: positive control antibody IMAB362 (antibody, human IgG1, kappa, V domains shown)
VH: QVQLQQPGAELVRPGASVKLSCKASGYTFTSYWINWVKQRPGQGLEWIGNIYPSDSYTNYNQKFKDKATLTVDKSSSTAYMQLSSPTSEDSAVYYCTRSWRGNSFDYWGQGTTLTVSS
VL: DIVMTQSPSSLTVTAGEKVTMSCKSSQSLLNSGNQKNYLTWYQQKPGQPPKLLIYWASTRESGVPDRFTGSGSGTDFTLTISSVQAEDLAVYYCQNDYSYPFTFGSGTKLEIKR
notes: Human-murine chimeric antibody; produced by Akeso Biopharma Inc; also called Claudiximab; zolbetuximab

EC50 [1]: 0.216 µg/mL
EC50 [3]: 0.054 nM
B3: humanized anti-human CLDN18.2 antibody 8C5.1H1L1 (antibody, human IgG1, kappa, V domains shown)
VH: B2 VH with G44R, S49A, A61L, K65R
VL: B2 VL with I21M, S82N

EC50 [1]: 0.243 µg/mL
EC50 [2]: 0.081 nM
B4: humanized anti-human CLDN18.2 antibody 8C5.1H2L3 (antibody, human IgG1, kappa, V domains shown)
VH: B2 VH
VL: B2 VL with T40A, F84L

EC50 [1]: 0.213 µg/mL
EC50 [2]: 0.103 nM
B5: humanized anti-human CLDN18.2 antibody 8C5.1H3L2 (antibody, human IgG1, kappa, V domains shown)
VH: B2 VH with T50S
VL: B2 VL

EC50 [1]: 0.242 µg/mL
EC50 [3]: 0.108 nM
B8: humanized anti-human CLDN18.2 antibody 8C5.1H1L2 (antibody, human IgG1, kappa, V domains shown)
VH: B2 VH with G44R, S49A, A61L, K65R
VL: B2 VL
